{"source": "patent US6548266B1", "about": "“Assay for detecting the enzymatic activity of a phosphorylation enzyme using enhanced signal generation” (Kinetek Pharmaceuticals, Inc., priority 1999, dated 2003)", "key": {"CDK1": {"target": "T1, CDK1 (Homo sapiens, UniProt P06493)", "T1 construct": "made in house; host or cells: bacterial culture", "T1 sequence (P06493 whole entry, species assumed)": "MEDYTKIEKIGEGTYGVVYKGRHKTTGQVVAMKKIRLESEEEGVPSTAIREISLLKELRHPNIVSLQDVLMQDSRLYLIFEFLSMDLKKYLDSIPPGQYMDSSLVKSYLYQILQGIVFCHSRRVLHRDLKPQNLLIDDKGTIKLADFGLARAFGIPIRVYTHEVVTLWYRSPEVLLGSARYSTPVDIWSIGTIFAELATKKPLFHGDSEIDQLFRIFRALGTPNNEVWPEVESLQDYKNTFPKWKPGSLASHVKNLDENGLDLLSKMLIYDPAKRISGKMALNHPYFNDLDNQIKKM", "assay": "Phosphorylation of peptide substrate in solution, spotted on phosphocellulose plate, scintillation counting", "type": "biochemical", "procedure": "(§1) The phosphorylation assay mixture typically comprised:\n(§2) The phosphorylation of the polymer-conjugated substrate was carried out in a solution containing 5 μL (˜5 μg peptide) of the conjugated substrate, 10 μL of the indicated enzyme, 10 μL of ADB, and 5 μL of γ-^32P-ATP. After incubation at room temperature for 15 minutes, the reaction was stopped by spotting 10 μL of the sample solution on a phosphocellulose plate and washing with water, 1% phosphoric acid solution, water and ethanol. The radioactivity in each well was measured using a Trilux Microbeta 1450 liquid scintillation counter (Wallac)."}, "PAK": {"system": "PAK", "assay": "Phosphorylation of peptide substrate in solution, spotted on phosphocellulose plate, scintillation counting", "type": "biochemical", "procedure": "as §1, §2"}, "PIM [1]": {"target": "T2, PIM (Xenopus laevis, UniProt Q91822)", "T2 construct": "made in house; host or cells: bacterial culture", "T2 sequence (Q91822 whole entry)": "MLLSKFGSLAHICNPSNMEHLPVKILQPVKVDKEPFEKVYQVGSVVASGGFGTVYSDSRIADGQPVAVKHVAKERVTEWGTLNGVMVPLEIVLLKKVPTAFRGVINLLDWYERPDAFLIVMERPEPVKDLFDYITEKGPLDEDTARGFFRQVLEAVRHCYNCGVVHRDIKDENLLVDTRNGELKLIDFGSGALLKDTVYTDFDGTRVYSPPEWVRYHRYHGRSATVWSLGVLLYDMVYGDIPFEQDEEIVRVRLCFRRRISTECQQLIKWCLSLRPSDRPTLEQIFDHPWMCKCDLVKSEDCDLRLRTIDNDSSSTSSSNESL", "assay": "Phosphorylation of peptide substrate in solution, spotted on phosphocellulose plate, scintillation counting", "type": "biochemical", "procedure": "as §1, §2"}, "S6K": {"target": "T3, S6K (Homo sapiens, UniProt P23443)", "T3 construct": "made in house", "T3 sequence (P23443 whole entry)": "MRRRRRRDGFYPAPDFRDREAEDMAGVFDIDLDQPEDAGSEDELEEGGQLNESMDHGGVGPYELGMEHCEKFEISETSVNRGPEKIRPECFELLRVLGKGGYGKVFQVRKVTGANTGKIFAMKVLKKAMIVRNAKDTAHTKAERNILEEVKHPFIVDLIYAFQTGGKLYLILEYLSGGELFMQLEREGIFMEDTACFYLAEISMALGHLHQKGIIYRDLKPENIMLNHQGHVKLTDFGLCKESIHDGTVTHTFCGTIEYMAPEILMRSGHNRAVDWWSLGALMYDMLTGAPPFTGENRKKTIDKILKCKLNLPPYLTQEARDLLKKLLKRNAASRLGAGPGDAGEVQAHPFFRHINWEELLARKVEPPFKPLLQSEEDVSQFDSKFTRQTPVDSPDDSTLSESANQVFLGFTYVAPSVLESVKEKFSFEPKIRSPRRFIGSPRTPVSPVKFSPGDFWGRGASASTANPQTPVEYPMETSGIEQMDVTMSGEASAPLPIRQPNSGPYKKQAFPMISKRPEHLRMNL", "assay": "Phosphorylation of peptide substrate in solution, spotted on phosphocellulose plate, scintillation counting", "type": "biochemical", "conditions": "for Ratio: after/before conjugation; for Radioactivity (cpm) Before Conjugation: free peptide before conjugation to polymer; for Radioactivity (cpm) Before Conjugation / Radioactivity (cpm) After conjugation: 15 min room temperature; for Radioactivity (cpm) After conjugation: peptide after conjugation to polymer", "procedure": "as §1, §2"}, "PKA": {"target": "T4, PKA (Bos taurus, UniProt P00517)", "T4 construct": "PKA was isloated from bovine heart; from tissue; host or cells: bovine heart", "assay": "Phosphorylation of peptide substrate in solution, spotted on phosphocellulose plate, scintillation counting", "type": "biochemical, bovine", "procedure": "CDK1, PAK and PIM were grown in bacterial culture at Kinetek Pharmaceuticals. PIM was isolated as described by Palaty et al. (1997) J Biol Chem 272:10514-10521. PKA was isloated from bovine heart. PKB was expressed in insect cells. S6K was isolated according to Grove et al. (1991) Mol Cell Bio 11:5541-5550. Kinase stock solutions were prepared at concentrations of 1-10 mg/mL in 150 mM Tris-Cl (pH 7.5) containing 5 mg/mL BSA and 100 mM MgCl2.\nas §1, §2"}, "PIM [2]": {"target": "T2, PIM", "assay": "Phosphorylation of substrate immobilized on covalent, amine-binding plates", "type": "biochemical", "conditions": "amine-binding plate", "procedure": "(§3) The polylysine-conjugated peptide substrate was diluted with a PBS buffer (pH 7.4) to a concentration of 0.1 mg/mL. Then 100 μL of the diluted solution was placed into each well of the covalent, amine-binding plate. The plate was incubated at room temperature for one hour and then washed with the PBS buffer three times and distilled water once. The substrate-immobilized plate was then phosphorylated as using standard assay conditions: 10 μL of the indicated enzyme, 15 μL of ADB and 5 μL of γ-^32P-ATP at room temperature for 15 minutes. After phosphorylation, the plate was rinsed sequentially with water, 1% phosphoric acid solution, water, and ethanol. The radioactivity in each well was determined using a Trilux Microbeta liquid scintillation counter. Two polylysine-conjugated substrates were immobilized on the covalent, amine-binding plates and phosphorylation of these immobilized polylysine-conjugated substrates was carried out. Both systems yielded reasonably high signals and the background signals on these plates were less than 500 cpm.\n(§4) Effect of pH. In the case of immobilization to covalent, amine-binding plates, the pH effect was investigated. The immobilization of a conjugated-substrate to an covalent, amine-binding plate was achieved by incubating 100 μL of PBS buffer solution containing 10 μg of the conjugated-substrate at room temperature for an hour. […]"}, "ERK1 [3]": {"target": "T5, ERK1 (Homo sapiens, UniProt P27361)", "T5 sequence (P27361 whole entry, species assumed)": "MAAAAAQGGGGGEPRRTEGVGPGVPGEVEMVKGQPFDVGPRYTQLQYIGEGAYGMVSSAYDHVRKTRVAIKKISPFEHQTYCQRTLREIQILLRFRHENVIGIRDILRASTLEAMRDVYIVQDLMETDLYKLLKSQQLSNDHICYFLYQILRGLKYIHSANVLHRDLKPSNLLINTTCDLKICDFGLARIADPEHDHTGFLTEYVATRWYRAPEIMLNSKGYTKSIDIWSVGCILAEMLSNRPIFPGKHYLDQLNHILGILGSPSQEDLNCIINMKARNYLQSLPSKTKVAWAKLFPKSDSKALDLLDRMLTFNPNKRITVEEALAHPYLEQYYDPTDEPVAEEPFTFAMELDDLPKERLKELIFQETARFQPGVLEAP", "assay": "Phosphorylation of peptide substrate in solution, spotted on phosphocellulose plate, scintillation counting", "type": "biochemical", "conditions": "for Radioactivity (cpm), polymer effect on the phosphorylation of SEK1-CT by ERK1: SEK1-CT conjugated to the polymer named in the row; for Enhancing effect of polymeric carrier on the substrate activity: SEK1-CT conjugated to the polymer, result in words", "procedure": "as §1, §2"}, "ERK1 [4]": {"target": "T5, ERK1", "assay": "Phosphorylation of substrate immobilized on covalent, amine-binding plates", "type": "biochemical", "conditions": "amine-binding plate", "procedure": "as §3, §4"}, "ERK1 [5]": {"target": "T5, ERK1", "assay": "Phosphorylation of SEK1-CT immobilized on covalent, amine-binding strips", "type": "biochemical", "conditions": "conjugation simultaneous with phosphorylation, 15 min", "procedure": "Immobilization of SEK1-CT on covalent, amine-binding strips was also accomplished in a stepwise procedure: the polymer was immobilized on a covalent, amine-binding plate first (1 hour), then treated with SMCC (1 hour). Conjugation of SEK1-CT to the immobilized polylysine was achieved simultaneously with the phosphorylation by ERK1. The polymers used were polylysine of MW ˜35,000 and poly(lys, ala) 1:1 copolymer of MW ˜35,000. The assay mixture comprising 5 μL of SEK1-CT, 5 μL of ADB, 10 μL of ERK1 and 10 μL of γ-^32P-ATP was incubated at room temperature for 15 minutes. An aliquot (10 μL) was then spotted on a phosphocellulose plate to stop the reaction. The radioactivity on the plate was determined using a Trilux Microbeta liquid scintillation counter. The radioactivity remaining on the surface of the wells after the plate was washed with water and 1% phosphoric acid was determined using a Beckmann liquid scintillation counter. […] Also, the immobilization of polymer-conjugated SEK1-CT on the surfaces enhanced its phosphorylation. The radioactivity observed for the unconjugated SEK1-CT may result from non-specific binding of the amine groups on SEK1-CT to the plate. This non-specific binding could be eliminated by using polylysine as the blocking agent."}, "ERK1 [6]": {"target": "T5, ERK1", "assay": "One-plate assay (non-covalent, medium binding plate)", "type": "biochemical", "procedure": "(§5) The one-plate assay was compared with the two-plate assay under the normal conditions employed by the high throughput screening robotic system: a mixture of 5 μL substrate (5 μg), 10 µL enzyme, 10 μL ADB and 5 μL γ-^32P ATP was incubated at room temperature for 20 minutes. In the one-plate assay, a non-covalent, medium binding plate was used."}, "ERK1 [7]": {"target": "T5, ERK1", "assay": "Two-plate assay", "type": "biochemical", "procedure": "as §5"}, "PKB [8]": {"target": "T6, PKB (Homo sapiens, UniProt P31749)", "T6 construct": "made in house; host or cells: insect cells", "T6 sequence (P31749 whole entry, species assumed)": "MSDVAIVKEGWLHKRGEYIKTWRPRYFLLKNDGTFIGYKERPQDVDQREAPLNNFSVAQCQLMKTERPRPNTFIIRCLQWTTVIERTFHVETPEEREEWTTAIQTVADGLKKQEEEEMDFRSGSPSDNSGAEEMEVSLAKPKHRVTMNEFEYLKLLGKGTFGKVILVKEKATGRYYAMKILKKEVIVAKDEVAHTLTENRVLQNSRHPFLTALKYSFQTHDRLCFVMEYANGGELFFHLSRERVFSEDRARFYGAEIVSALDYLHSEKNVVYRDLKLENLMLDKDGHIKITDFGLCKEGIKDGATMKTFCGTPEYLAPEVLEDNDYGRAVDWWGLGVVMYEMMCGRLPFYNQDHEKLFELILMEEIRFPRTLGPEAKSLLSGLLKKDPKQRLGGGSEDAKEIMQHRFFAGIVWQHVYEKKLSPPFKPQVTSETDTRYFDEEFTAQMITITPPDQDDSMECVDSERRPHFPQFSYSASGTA", "assay": "Phosphorylation of peptide substrate in solution, spotted on phosphocellulose plate, scintillation counting", "type": "biochemical", "procedure": "as §1, §2"}, "PKB [9]": {"target": "T6, PKB", "assay": "One-plate assay (non-covalent, medium binding plate)", "type": "biochemical", "procedure": "as §5"}, "PKB [10]": {"target": "T6, PKB", "assay": "Two-plate assay", "type": "biochemical", "procedure": "as §5"}, "[11]": {"conditions": "free peptide before conjugation to polymer"}, "[12]": {"conditions": "peptide after conjugation to polymer"}, "[13]": {"conditions": "conjugated substrate, 20 minutes"}}, "data": [{"substance": "CGRTGRRNSI [CAPK-sub]", "values": [{"measurement": "Ratio", "setting": "CDK1; after/before conjugation", "value": 3.76}, {"measurement": "Radioactivity (cpm) Before Conjugation", "setting": "CDK1; [11]", "value": 12500, "unit": "cpm"}, {"measurement": "Radioactivity (cpm) After conjugation", "setting": "CDK1; [12]", "value": 47000, "unit": "cpm"}, {"measurement": "Ratio", "setting": "PAK; after/before conjugation", "value": 2.14}, {"measurement": "Radioactivity (cpm) Before Conjugation", "setting": "PAK; [11]", "value": 31050, "unit": "cpm"}, {"measurement": "Radioactivity (cpm) After conjugation", "setting": "PAK; [12]", "value": 66510, "unit": "cpm"}, {"measurement": "Ratio", "setting": "PIM [1]; after/before conjugation", "value": 2.31}, {"measurement": "Radioactivity (cpm) Before Conjugation", "setting": "PIM [1]; [11]", "value": 18000, "unit": "cpm"}, {"measurement": "Radioactivity (cpm) After conjugation", "setting": "PIM [1]; [12]", "value": 41500, "unit": "cpm"}, {"measurement": "Ratio", "setting": "S6K", "value": 6.25}, {"measurement": "Radioactivity (cpm) Before Conjugation", "setting": "S6K", "value": 10000, "unit": "cpm"}, {"measurement": "Radioactivity (cpm) After conjugation", "setting": "S6K", "value": 62500, "unit": "cpm"}, {"measurement": "Ratio", "setting": "PKA; after/before conjugation", "value": 1.10}, {"measurement": "Radioactivity (cpm) Before Conjugation", "setting": "PKA; [11]", "value": 35680, "unit": "cpm"}, {"measurement": "Radioactivity (cpm) After conjugation", "setting": "PKA; [12]", "value": 39425, "unit": "cpm"}, {"measurement": "Radioactivity (cpm) Free substrate", "setting": "PIM [2]", "value": "≦300 cpm"}]}, {"substance": "CKILDQMPATPSSPMYVD [SEK1-CT]", "values": [{"measurement": "Ratio", "setting": "ERK1 [3]; after/before conjugation", "value": 48.28}, {"measurement": "Radioactivity (cpm) Before Conjugation", "setting": "ERK1 [3]; [11]", "value": 2390, "unit": "cpm"}, {"measurement": "Radioactivity (cpm) After conjugation", "setting": "ERK1 [3]; [12]", "value": 115400, "unit": "cpm"}, {"measurement": "Radioactivity (cpm) Free substrate", "setting": "ERK1 [4]", "value": "<500", "unit": "cpm"}, {"measurement": "Radioactivity (cpm)", "setting": "ERK1 [5]", "value": 7570, "unit": "cpm"}, {"measurement": "S/N ratio SEK1-CT", "setting": "ERK1 [6]", "value": 117}, {"measurement": "Radioactivity (cpm) SEK1-CT/ERK1 Conj", "setting": "ERK1 [6]; [13]", "value": 41000, "unit": "cpm"}, {"measurement": "S/N ratio SEK1-CT", "setting": "ERK1 [7]", "value": 16}, {"measurement": "Radioactivity (cpm) SEK1-CT/ERK1 Free", "setting": "ERK1 [7]; free substrate, 20 minutes", "value": 2800, "unit": "cpm"}]}, {"substance": "CKRPRAASFAE [PKB-sub]", "values": [{"measurement": "Ratio", "setting": "PKB [8]; after/before conjugation", "value": 1.91}, {"measurement": "Radioactivity (cpm) Before Conjugation", "setting": "PKB [8]; [11]", "value": 54300, "unit": "cpm"}, {"measurement": "Radioactivity (cpm) After conjugation", "setting": "PKB [8]; [12]", "value": 103900, "unit": "cpm"}, {"measurement": "S/N ratio PKB-sub", "setting": "PKB [9]", "value": 81}, {"measurement": "Radioactivity (cpm) PKB-sub/PKB Conj", "setting": "PKB [9]; [13]", "value": 48300, "unit": "cpm"}, {"measurement": "S/N ratio PKB-sub", "setting": "PKB [10]", "value": 22}, {"measurement": "Radioactivity (cpm) PKB-sub/PKB Free", "setting": "PKB [10]; free substrate, 20 minutes", "value": 38000, "unit": "cpm"}]}, {"substance": "CKRRRLASLR [S6K-sub]", "values": [{"measurement": "Ratio", "setting": "S6K", "value": 2.82}, {"measurement": "Radioactivity (cpm) Before Conjugation", "setting": "S6K", "value": 14000, "unit": "cpm"}, {"measurement": "Radioactivity (cpm) After conjugation", "setting": "S6K", "value": 39450, "unit": "cpm"}]}, {"substance": "Polyarginine", "values": [{"measurement": "Radioactivity (cpm), polymer effect on the phosphorylation of SEK1-CT by ERK1", "setting": "ERK1 [3]", "value": 91431, "unit": "cpm"}, {"measurement": "Enhancing effect of polymeric carrier on the substrate activity", "setting": "ERK1 [3]", "value": "certain enhancement"}]}, {"substance": "Polyhistidine", "values": [{"measurement": "Enhancing effect of polymeric carrier on the substrate activity", "setting": "ERK1 [3]", "value": "marginal enhancing effect"}]}, {"substance": "Polylysine", "values": [{"measurement": "Radioactivity (cpm), polymer effect on the phosphorylation of SEK1-CT by ERK1", "setting": "ERK1 [3]", "value": 211234, "unit": "cpm"}, {"measurement": "Enhancing effect of polymeric carrier on the substrate activity", "setting": "ERK1 [3]", "value": "highest enhancing effect"}]}]}
